The target in assay [1] is T1, recombinant human CTLA4-Fc (Sino Biological, 11159-H03H) (human, UniProt P16410 36-162).
T1 construct: bought; also called human CTLA4 fused with human FC fragment
T1 sequence (looked up): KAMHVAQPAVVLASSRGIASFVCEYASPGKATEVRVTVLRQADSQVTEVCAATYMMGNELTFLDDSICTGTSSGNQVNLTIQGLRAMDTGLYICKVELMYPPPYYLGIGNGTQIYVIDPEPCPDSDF
Briefly: ELISA, Fab captured. In general terms: An ELISA detects its analyte on a solid surface through an enzyme-linked reagent.

Assay [2] deals with mouse CTLA4 fused with human FC fragment (mouse, UniProt P09793 36-162, limits assumed). Briefly: ELISA, Fab captured.
The target in assay [3] is T1, recombinant human CTLA4-Fc (Sino …). Briefly: ELISA, CTLA4-Fc coated, batch 1. How it is done: (§1) Plates were blocked with PBS supplemented with 3% non-fat milk at 37° C. for 1 hour. After washing, 100 μL, of 3-fold serial dilutions of antibodies were added to each well. After incubation at 37° C. for 1 hour, plates were washed four times, and 100 μL HRP conjugated anti-human IgG (Fab specific) (1:6000 dilution) was added to each well. Plates were incubated at 37° C. for 1 hour, washed four times, and then 50 μL TMB substrate solution was added to each well, and the plate was incubated at room temperature. […] The EC50 was evaluated by fitting the ELISA data using the asymmetrical sigmoidal (five-parameter logistic equation) model of GraphPad Prism 6 software.

Assay [4] has the same target. Briefly: ELISA, CTLA4-Fc coated, batch 2. Here is the method:
as §1

The target is the same in assay [5]. Briefly: ELISA; EC50 over EC50 of TY21580. How it is done: as §1
The target is the same in assay [6]. Briefly: ELISA; EC50 over EC50 of TY21580. Here is the method:
Plates were incubated at 37° C. for 1 hour, washed four times, and then 50 μL TMB substrate solution was added to each well, and the plate was incubated at room temperature. […] The EC50 was evaluated by fitting the ELISA data using the asymmetrical sigmoidal (five-parameter logistic equation) model of GraphPad Prism 6 software.
The purified activatable antibodies were treated with the proteases which recognize the cleavage sequences, and were then tested to determine whether removal of the masking peptide restored their activity. […] The masking efficiency was then measured by ELISA as described above.
This is another data set of the same source.

For assay [7] the target is unchanged. Put plainly: ELISA; EC50 over EC50 of TY21580. How it is done:
as §1
This is another data set of the same source.

The target is the same in assay [8]. Put plainly: ELISA; EC50 over EC50 of TY21580. Here is the method:
as §1
The source holds these as a separate data set.

Read-outs that look alike come from different tables or passages of the source.

Among the data in patent US20240141046A1 (published 2024) are binding result, LogEC50 and Masking efficiency values, retold here.

B1: B15700 (Fab, V domains shown)
VH: EVQLVESGGGLVQPGGSLRLSCAASGFTFSGYAIHWVRQAPGKGLEWIGIISPSGGGTKYAQKFQGRVTISRDNSKNTLYLQLNSLRAEDTAVYYCARHPFAYWGQGTLVTVSS
VL: DIQLTQSPSSLSASVGDRVTITCRASQSVDFYGISFLDWYQQKPGKAPKLLIYDASNRATGIPSRFSGSGSGTDFTLTISSLQPEDFATYYCQQYVSSPPEYTFGQGTKVEIKR
Take B1: the binding result in assay [1] and in assay [2] was “binds” in each case.

B2: B15709 (Fab, V domains shown)
VH: EVQLVESGGGLVQPGGSLRLSCAASGFTFSDYAIHWVRQAPGKGLEWIGIISPSSGSTNYAQKFQGRVTISRDNSKNTLYLQLNSLRAEDTAVYYCARDIHSGSSGYYYGFDVWGQGTLVTVSS
VL: DIQLTQSPSSLSASVGDRVTITCRASESVDFFGISFLAWYQQKPGKAPKLLIYDASNRATGIPSRFSGSGSGTDFTLTISSLQPEDFATYYCQHYTSSPPVYTFGQGTKVEIKR
For B2, the binding result in assay [1] and in assay [2] was “binds” in each case.

B3: B15736 (Fab, V domains shown)
VH: EVQLVESGGGLVQPGGSLRLSCAASGFTFSDYAIHWVRQAPGKGLEWIGIISPSGGSTKYAQKFQGRVTISRDNSKNTLYLQLNSLRAEDTAVYYCARLGYGYFDVWGQGTLVTVSS
VL: DIQLTQSPSSLSASVGDRVTITCRASQSVDFYGISFLHWYQQKPGKAPKLLIYDASSLESGVPSRFSGSGSGTDFTLTISSLQPEDFATYYCVQALQLPLTFGQGTKVEIKR
Consider B3, for which the binding result in assay [1] and in assay [2] was “binds” each time.

B4: TY22401 (antibody, V domains shown)
VH: EVQLVESGGGLVQPGGSLRLSCAASGYSISSGYHWSWIRQAPGKGLEWLARIDWDDDKYYSTSLKSRLTISRDNSKNTLYLQLNSLRAEDTAVYYCARSYVYFDYWGQGTLVTVSS
VL: EVGSYNFVADSCPDHPYPCSASGRSAGGGGSPLGLAGSGGSDIQLTQSPSSLSASVGDRVTITCRASQSVRGRFLAWYQQKPGKAPKLLIYDASNRATGIPSRFSGSGSGTDFTLTISSLQPEDFATYYCQQSSSWPPTFGQGTKVEIKR
notes: peptide fused to the N-terminus of the light chain; also called B13189 (peptide name)
For the molecule B4, the LogEC50 in assay [3] was -7.62; in assay [4] it was -7.8.

B5: TY22775 (antibody, V domains shown)
VH: EVQLVESGGGLVQPGGSLRLSCAASGYSISSGYHWSWIRQAPGKGLEWLARIDWDDDKYYSTSLKSRLTISRDNSKNTLYLQLNSLRAEDTAVYYCARSYVYFDYWGQGTLVTVSS
VL: EVGHSDCDAFYPYCDSSGRSAGGGGTPLGLAGSGGSDIQLTQSPSSLSASVGDRVTITCRASQSVRGRFLAWYQQKPGKAPKLLIYDASNRATGIPSRFSGSGSGTDFTLTISSLQPEDFATYYCQQSSSWPPTFGQGTKVEIKR
Take B5: the Masking efficiency in assay [5] was 168 fold.

B6: TY22566 (antibody, IgG1, V domains shown)
VH: EVQLVESGGGLVQPGGSLRLSCAASGYSISSGYHWSWIRQAPGKGLEWLARIDWDDDKYYSTSLKSRLTISRDNSKNTLYLQLNSLRAEDTAVYYCARSYVYFDYWGQGTLVTVSS
VL: EVGSYPNPASDCVPYYYACAYSGRSAGGGGSPLGLAGSGGSDIQLTQSPSSLSASVGDRVTITCRASQSVRGRFLAWYQQKPGKAPKLLIYDASNRATGIPSRFSGSGSGTDFTLTISSLQPEDFATYYCQQSSSWPPTFGQGTKVEIKR
B6: the LogEC50 in assay [4] is -6.79. For the same molecule, the Masking efficiency in assay [5] stood at 489 fold.

B7: TY22565 (antibody, IgG1, V domains shown)
VH: EVQLVESGGGLVQPGGSLRLSCAASGYSISSGYHWSWIRQAPGKGLEWLARIDWDDDKYYSTSLKSRLTISRDNSKNTLYLQLNSLRAEDTAVYYCARSYVYFDYWGQGTLVTVSS
VL: EVGSYPQPSSDCVPYYYACAYSGRSAGGGGSPLGLAGSGGSDIQLTQSPSSLSASVGDRVTITCRASQSVRGRFLAWYQQKPGKAPKLLIYDASNRATGIPSRFSGSGSGTDFTLTISSLQPEDFATYYCQQSSSWPPTFGQGTKVEIKR
As for B7, the LogEC50 in assay [4] is -6.68.

B8: TY22564 (antibody, IgG1, V domains shown)
VH: EVQLVESGGGLVQPGGSLRLSCAASGYSISSGYHWSWIRQAPGKGLEWLARIDWDDDKYYSTSLKSRLTISRDNSKNTLYLQLNSLRAEDTAVYYCARSYVYFDYWGQGTLVTVSS
VL: EVGSYYSAYPACDSHYPYCNSAGRSAGGGGSPLGLAGSGGSDIQLTQSPSSLSASVGDRVTITCRASQSVRGRFLAWYQQKPGKAPKLLIYDASNRATGIPSRFSGSGSGTDFTLTISSLQPEDFATYYCQQSSSWPPTFGQGTKVEIKR
In the case of B8, the LogEC50 in assay [4] is -7.41.

B9: TY22404 (antibody, IgG1, V domains shown)
VH: EVQLVESGGGLVQPGGSLRLSCAASGYSISSGYHWSWIRQAPGKGLEWLARIDWDDDKYYSTSLKSRLTISRDNSKNTLYLQLNSLRAEDTAVYYCARSYVYFDYWGQGTLVTVSS
VL: EVGSYPNPSSDCVPYYYACAYSGRSAGGGGSPLGLAGSGGSDIQLTQSPSSLSASVGDRVTITCRASQSVRGRFLAWYQQKPGKAPKLLIYDASNRATGIPSRFSGSGSGTDFTLTISSLQPEDFATYYCQQSSSWPPTFGQGTKVEIKR
notes: also called B13197 (peptide name)
As to B9, the LogEC50 in assay [3] is -6.75; in assay [4], -6.89. The Masking efficiency in assay [5] was 308 fold; in assay [6], 216 fold; in assay [7] it was 572 fold; in assay [8], 469 fold.

B10: TY22563 (antibody, IgG1, V domains shown)
VH: EVQLVESGGGLVQPGGSLRLSCAASGYSISSGYHWSWIRQAPGKGLEWLARIDWDDDKYYSTSLKSRLTISRDNSKNTLYLQLNSLRAEDTAVYYCARSYVYFDYWGQGTLVTVSS
VL: EVGSYYSAYPACDSHYPYCQSSGRSAGGGGSPLGLAGSGGSDIQLTQSPSSLSASVGDRVTITCRASQSVRGRFLAWYQQKPGKAPKLLIYDASNRATGIPSRFSGSGSGTDFTLTISSLQPEDFATYYCQQSSSWPPTFGQGTKVEIKR
On to B10, for which the LogEC50 in assay [4] is -7.32. Moreover, the Masking efficiency in assay [5] turned out to be 144 fold.

B11: TY22776 (antibody, V domains shown)
VH: EVQLVESGGGLVQPGGSLRLSCAASGYSISSGYHWSWIRQAPGKGLEWLARIDWDDDKYYSTSLKSRLTISRDNSKNTLYLQLNSLRAEDTAVYYCARSYVYFDYWGQGTLVTVSS
VL: EVGSSDCVPYYYACAYSGRSAGGGGTPLGLAGSGGSDIQLTQSPSSLSASVGDRVTITCRASQSVRGRFLAWYQQKPGKAPKLLIYDASNRATGIPSRFSGSGSGTDFTLTISSLQPEDFATYYCQQSSSWPPTFGQGTKVEIKR
As to B11, in assay [5], the Masking efficiency was 296 fold.

B12: TY22402 (antibody, IgG1, V domains shown)
VH: EVQLVESGGGLVQPGGSLRLSCAASGYSISSGYHWSWIRQAPGKGLEWLARIDWDDDKYYSTSLKSRLTISRDNSKNTLYLQLNSLRAEDTAVYYCARSYVYFDYWGQGTLVTVSS
VL: EVGSYIVHHSDCDAFYPYCDSSGRSAGGGGSPLGLAGSGGSDIQLTQSPSSLSASVGDRVTITCRASQSVRGRFLAWYQQKPGKAPKLLIYDASNRATGIPSRFSGSGSGTDFTLTISSLQPEDFATYYCQQSSSWPPTFGQGTKVEIKR
notes: also called B13180 (peptide name)
For the molecule B12, the LogEC50 was -6.32 in assay [3] and -6.9 in assay [4]. The Masking efficiency in assay [5] is 243 fold; in assay [7], 554 fold.
